Data reported in patent US7022313B2, “Hydrogel particle formulation” (PowderJect Research Ltd., priority 1999, dated 2006).

Assay: LDH specific activity after lyophilization (colorimetric endpoint assay)
Format: biochemical
Description: Lactate dehydrogenase (LDH) was obtained from Sigma Chemicals (L1254; Lot 96H9568). Bio-Gel A15M was obtained from Bio-Rad (Cat. No. 151-1050) as a powder having a MMAD of 20-150 μm. LDH activity was measured using an endpoint, colorimetric assay (Sigma No. 500). All other reagents were obtained from Fisher Scientific and were ACS-grade or better.
The Bio-Gel A15M resin was washed with water to remove preservative and then poured into a disposable 1×10 cm column to a final column volume of approximately 5 mL. The column was equilibrated with 5 mL sodium citrate, pH 6 containing 5% (w/v) mannitol. LDH was dissolved in the same buffer at 2 mg/mL final concentration. A 5 mL sample of this solution was loaded to the column and allowed to fully penetrate.
The resin was emptied from the column and lyophilized. After lyophilization the resin was re-suspended in water and poured back into the column. The column was then eluted with a 5 mL portion of the buffer. […]
The protein concentration of each solution was determined by absorbance at 280 nm using a Hewlett-Packard UV-VIS Spectrophotometer. […] The absorbance of the color formed is inversely proportional to the LDH activity. LDH specific activity was calculated by dividing the […].

Lactate dehydrogenase [LDH]
specific activity, % of the starting material (LDH loaded on agarose beads (Bio-Gel A15M), lyophilized, eluted, preliminary): about 40%
specific activity, % of the starting material (LDH recovered after lyophilization from solution): 98%
